According to US20150274820A1 (ESBATECH AN ALCON BIOMEDICAL RESEARCH UNIT, published 2015):
Where a chain is given by its changes, count along the chain named. Where “and” joins values, the source holds several entries; their conditions need not be identical. Identical values can stand only once.

T1: recombinant human VEGF110 (human, UniProt P15692-4 27-136, limits assumed)
T1 construct: Made in house; also called hVEGF110
T1 sequence (looked up): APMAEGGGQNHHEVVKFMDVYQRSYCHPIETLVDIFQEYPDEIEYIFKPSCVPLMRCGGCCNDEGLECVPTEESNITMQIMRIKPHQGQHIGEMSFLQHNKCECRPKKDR

T2: recombinant human VEGF121 (human, UniProt P15692 27-147)
T2 construct: mature; Isoform VEGF121 of the entry; also called hVEGF121
T2 sequence (looked up): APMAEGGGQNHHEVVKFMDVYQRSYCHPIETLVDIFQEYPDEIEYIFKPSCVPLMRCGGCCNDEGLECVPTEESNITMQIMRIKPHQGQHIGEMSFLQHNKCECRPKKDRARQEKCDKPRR

T3: recombinant human PLGF (human, UniProt P49763-2 19-149, limits assumed)
T3 construct: Negative control; also called PIGF
T3 sequence (looked up): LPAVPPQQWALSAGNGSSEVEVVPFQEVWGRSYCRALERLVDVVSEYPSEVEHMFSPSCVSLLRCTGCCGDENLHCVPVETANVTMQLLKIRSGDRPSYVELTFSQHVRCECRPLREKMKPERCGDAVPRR

B1: 534-max (scFv)
scFv: EIVMTQSPSTLSASVGDRVIITCQASQSINIWLSWYQQKPGKAPKLLIYKESTLASGVPSRFSGSGSGTEFTLTISSLQPDDFATYYCQNNYDSGNNGFPFGQGTKLTVLGGGGGSGGGGSGGGGSGGGGSEVQLVESGGGLVQPGGSLRLSCTASGFSLSYYYMSWVRQAPGKGLEWVGIIGPGDYTDYASWAKGRFTISKDTSKNTVYLQMNSLRAEDTAVYYCARGDDNSGWGEDIWGQGTLVTVSS
notes: VL and VH tied by name; also called EP534max; Protein Nr; 793
B2: 511-min (scFv)
scFv: EIVMTQSPSTLSASVGDRVIITCQASQSINIWCSWYQQKPGKAPKLLIYRASTLASGVPSRFSGSGSGAEFTLTISSLQPDDFATYYCQANYAYSAGYGAAFGQGTKLTVLGGGGGSGGGGSGGGGSGGGGSEVQLVESGGGLVQPGGSLRLSCAASGFSLNTYYMNWVRQAPGKGLEWVSIIAPDDTTYYASWAKSRFTISRDNSKNTLYLQMNSLRAEDTAVYYCAKSGDTTAWGADIWGQGTLVTVSS
notes: VL and VH tied by name; also called Protein Nr
B3: 511-max (scFv)
scFv: B2 scFv with C33L, A69T, A155T, A156V, S181G, F199S, N205T, L210V, K229R
notes: also called ESBA802
B4: 578minmax (scFv)
scFv: EIVMTQSPSTLSASVGDRVIITCQASEIIHSWLAWYQQKPGKAPKLLIYLASTLASGVPSRFSGSGSGAEFTLTISSLQPDDFATYYCQNVYLASTNGANFGQGTKLTVLGGGGGSGGGGSGGGGSGGGGSEVQLVESGGGLVQPGGSLRLSCTASGFSLTDYYYMTWVRQAPGKGLEWVGFIDPDDDPYYATWAKGRFTISRDTSKNTVYLQMNSLRAEDTAVYYCAGGDHNSGWGLDIWGQGTLVTVSS
notes: also called ESBA903; 903
B5: 578-min (scFv)
scFv: B4 scFv with T154A, G181S, T205N, V210L, G229K
notes: also called EP578 min; Protein Nr; 820
B6: 509-maxII (scFv)
scFv: EIVMTQSPSTLSASVGDRVIITCQASQNIRIWLSWYQQKPGKAPKLLIYKASTLESGVPSRFSGSGSGTEFTLTISSLQPDDFATYYCQNNAHYSTNGGTFGQGTKLTVLGGGGGSGGGGSGGGGSGGGGSEVQLVESGGGLVQPGGSLRLSCTASGFSLSSYYMSWVRQAPGKGLEWVGILDYVGDTDYASWAKGRFTISKDASKNTVYLQMNSLRAEDTAVYYCARTDDSRGWGLNIWGQGTLVTVSS
notes: VH tied by name; also called Protein Nr

Tests used:
[1] = molecular target: T4, recombinant human VEGF165 (human, UniProt P15692 27-191); assay: Biacore SPR, VEGF immobilized, pH 7.4
T4 construct: mature; Isoform VEGF165 of the entry; also called hVEGF165; hVEGF
Procedure: (§1) In this example, the Biacore-binding ability of scFvs was tested and the binding affinity was measured using the exemplary surface plasmon resonance method with BIAcore™-T100. The VEGF proteins, tested for binding by these scFv candidates, in this example and later examples include purified Escherichia coli-expressed recombinant human VEGF₁₆₅ (PeproTech EC Ltd.), recombinant human VEGF₁₂₁ (PeproTech EC Ltd.), recombinant human VEGF₁₁₀ (ESBATech AG), recombinant murine VEGF₁₆₄ (PeproTech EC Ltd.), recombinant rat VEGF₁₆₄ (Biovision), recombinant rabbit VEGF₁₁₀ (ESBATech AG), and recombinant human PLGF (PeproTech EC Ltd.). For the surface plasmon resonance experiment, carboxymethylated dextran biosensor chips (CM4, GE Healthcare) were activated with N-ethyl-N′-(3-dimethylaminopropyl) carbodiimide hydrochloride and N-hydroxysuccinimide according to the supplier's instructions. Each of the 6 different VEGF forms, as exemplified above, was coupled to 1 of the 4 different flow cells on a CM4 sensor chip using a standard amine-coupling procedure. […] The 4th flow cell of each chip was treated similarly except no proteins were immobilized prior to blocking, and the flow cell was used as in-line reference. […] Dissociation of the anti-VEGF scFv from the VEGF on the CM4 chip was allowed to proceed for 10 min at 25° C. Sensorgrams were generated for each anti-VEGF scFv sample after in-line reference cell correction followed by buffer sample subtraction. The apparent dissociation rate constant (kd), the apparent association rate constant (kₐ) and the apparent dissociation equilibrium constant (KD) were calculated using one-to-one Langmuir binding model with BIAcore T100 evaluation Software version 1.1.
Target sequence in this assay (P15692 other isoform, or with tags, fused parts or gaps): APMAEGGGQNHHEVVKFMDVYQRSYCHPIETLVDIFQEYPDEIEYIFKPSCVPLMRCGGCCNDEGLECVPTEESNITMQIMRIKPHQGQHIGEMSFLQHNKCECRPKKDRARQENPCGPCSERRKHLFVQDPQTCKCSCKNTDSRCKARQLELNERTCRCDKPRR

[2] = molecular target: T4, recombinant human VEGF165; assay: Biacore SPR, VEGF immobilized, pH 5
Procedure: as §1
Target sequence in this assay (P15692 other isoform, or with tags, fused parts or gaps): as above

[3] = molecular target: T4, recombinant human VEGF165; assay: cell-based or functional assay
[4] = molecular target: T4, recombinant human VEGF165; assay: cell-based or functional assay; remark: listed apart in the source
Target sequence in this assay (P15692 other isoform, or with tags, fused parts or gaps): as above

[5] = molecular target: T1, recombinant human VEGF110; assay: Biacore SPR, VEGF immobilized, pH 5
Procedure: as §1

[6] = molecular target: T4, recombinant human VEGF165; assay: Biacore SPR, VEGF immobilized, pH 5; remark: listed apart in the source
Procedure: as §1
Target sequence in this assay (P15692 other isoform, or with tags, fused parts or gaps): as above

[7] = molecular target: T2, recombinant human VEGF121; assay: Biacore SPR, VEGF immobilized, pH 5
Procedure: as §1

[8] = molecular target: T3, recombinant human PLGF; assay: Biacore SPR, PlGF immobilized, pH 5
Procedure: as §1

[9] = molecular target: T4, recombinant human VEGF165; assay: cell-based or functional assay; remark: listed apart in the source
[10] = molecular target: T4, recombinant human VEGF165; assay: VEGFR1/Fc competition ELISA on coated hVEGF165; ratio to Lucentis
Procedure: After 30-60 min of incubation at room temperature, the mixtures were transferred to the human VEGF₁₆₅ immobilized plate and incubated for 90 min. […] Optical density at 450 nm (OD 450 nm) was measured using a Sunrise microplate reader (Tecan). Data were analyzed as above, and EC₅₀ values were calculated from the dose-response curves of the scFvs.
Target sequence in this assay (P15692 other isoform, or with tags, fused parts or gaps): as above

[11] = molecular target: recombinant murine VEGF164 (mouse) (UniProt Q00731); assay: Biacore SPR, VEGF immobilized, pH 5
[12] = molecular target: recombinant rat VEGF164 (rat) (UniProt P16612); assay: Biacore SPR, VEGF immobilized, pH 5
[13] = molecular target: T4, recombinant human VEGF165; assay: Biacore SPR, VEGF immobilized, pH 5; remark: listed apart in the source
Procedure: as §1, with “1.1. […]” for “1.1.”
Target sequence in this assay (P15692 other isoform, or with tags, fused parts or gaps): as above

[14] = molecular target: recombinant murine VEGF164 (mouse) (UniProt Q00731); assay: Biacore SPR, pH 5 (text; Table 8b prints 5.67E-10)
[15] = molecular target: recombinant murine VEGF164 (mouse) (UniProt Q00731); assay: Biacore SPR, pH 7.4 (data not shown)
[16] = molecular target: recombinant rat VEGF164 (rat) (UniProt P16612); assay: Biacore SPR, pH 7.4 (data not shown)
[17] = molecular target: recombinant murine VEGF164 (mouse) (UniProt Q00731); assay: cell-based or functional assay
[18] = molecular target: recombinant rat VEGF164 (rat) (UniProt P16612); assay: cell-based or functional assay
[19] = molecular target: recombinant murine VEGF164 (mouse) (UniProt Q00731); assay: Biacore SPR; ratio to hVEGF165
[20] = molecular target: recombinant rat VEGF164 (rat) (UniProt P16612); assay: Biacore SPR; ratio to hVEGF165

Binder | koff [1] | kon [1] | koff [2] | kon [2] | Rel. activity in HUVEC assay (EC50Luc[nM]/EC50test[nM]) [4] | koff [5] | kon [5] | koff [6] | kon [6] | koff [7] | kon [7] | binding result [8] | Rel. activity in HUVEC assay (EC50Luc[nM]/EC50test[nM]) hVEGF [9] | Rel. activity hVEGR1 comp. ELISA (EC50Luc[nM]/EC50test[nM]) [10] | koff [11] | kon [11] | koff [12] | kon [12] | koff [13] | kon [13] | further results
B1 | 0.00262 s⁻¹ | 1.06e+06 M⁻¹ s⁻¹ | 0.0173 s⁻¹ | 1.88e+06 M⁻¹ s⁻¹ | 0.0014 | – | – | – | – | – | – | – | – | – | – | – | – | – | – | – | EC50 in HUVEC assay (FIG. 8c) [3]: 63.5 nM
B2 | 0.000885 s⁻¹ | 675000 M⁻¹ s⁻¹ | 0.00128 s⁻¹ | 505000 M⁻¹ s⁻¹ | 0.0011 | 0.000898 s⁻¹ | 619000 M⁻¹ s⁻¹ | 0.00128 s⁻¹ | 505000 M⁻¹ s⁻¹ | 0.000963 s⁻¹ | 778000 M⁻¹ s⁻¹ | no binding | 0.0011 | 0.7 | 0.00103 s⁻¹ | 625000 M⁻¹ s⁻¹ | 0.00112 s⁻¹ | 550000 M⁻¹ s⁻¹ | 0.00128 s⁻¹ | 505000 M⁻¹ s⁻¹ | –
B3 | 6.85e-05 s⁻¹ | 800000 M⁻¹ s⁻¹ | 4.4e-05 s⁻¹ | 659000 M⁻¹ s⁻¹ | 0.0179 | 7.96e-05 s⁻¹ | 405000 M⁻¹ s⁻¹ | 4.4e-05 s⁻¹ | 659000 M⁻¹ s⁻¹ | 9.97e-05 s⁻¹ | 467000 M⁻¹ s⁻¹ | no binding | 0.0179 | 8 | 4.61e-05 s⁻¹ | 753000 M⁻¹ s⁻¹ | 6.63e-05 s⁻¹ | 626000 M⁻¹ s⁻¹ | 4.4e-05 s⁻¹ | 659000 M⁻¹ s⁻¹ | –
B4 | – | – | – | – | – | – | – | – | – | – | – | – | 1.6 and 1.4 | – | 0.000657 s⁻¹ | 1.14e+06 M⁻¹ s⁻¹ | 0.000641 s⁻¹ | 858000 M⁻¹ s⁻¹ | 0.000504 s⁻¹ | 806000 M⁻¹ s⁻¹ | Kd [14]: 0.576 nM; Kd [15]: 0.0273 nM; Kd [16]: 0.0219 nM; EC50, HUVEC proliferation induced by mouse VEGF164 [17]: 0.0631 nM; EC50, HUVEC proliferation induced by rat VEGF164 [18]: 0.0697 nM; EC50, HUVEC proliferation induced by hVEGF165 [3]: 0.0552 nM; potency in HUVEC assay relative to Lucentis [3]: ~1.6 fold; relative value KdhVEGF165/KdmVEGF164 [19]: 1.1; relative value kdhVEGF165/kdmVEGF164 [19]: 0.8; relative value KdhVEGF165/KdmVEGF164 (rat block) [20]: 0.8; relative value kdhVEGF165/kdmVEGF164 (rat block) [20]: 0.8; Kd [11]: 0.567 nM; Kd [12]: 0.748 nM; Kd [13]: 0.625 nM
B5 | 0.000202 s⁻¹ | 1.11e+06 M⁻¹ s⁻¹ | 0.0103 s⁻¹ | 1.14e+06 M⁻¹ s⁻¹ | 0.1 | 0.0104 s⁻¹ | 915000 M⁻¹ s⁻¹ | 0.0103 s⁻¹ | 1.14e+06 M⁻¹ s⁻¹ | 0.0088 s⁻¹ | 961000 M⁻¹ s⁻¹ | no binding | 0.1 | 4.8 | 0.0151 s⁻¹ | 1.4e+06 M⁻¹ s⁻¹ | 0.0182 s⁻¹ | 1.7e+06 M⁻¹ s⁻¹ | 0.0103 s⁻¹ | 1.14e+06 M⁻¹ s⁻¹ | EC50 in HUVEC assay (FIG. 8d) [3]: 1.53 nM
B6 | 0.0198 s⁻¹ | 7.59e+06 M⁻¹ s⁻¹ | 0.00282 s⁻¹ | 838000 M⁻¹ s⁻¹ | 0.0009 | 0.00133 s⁻¹ | 901000 M⁻¹ s⁻¹ | 0.00282 s⁻¹ | 838000 M⁻¹ s⁻¹ | 0.00123 s⁻¹ | 897000 M⁻¹ s⁻¹ | no binding | – | 0.09 | 0.0601 s⁻¹ | 3.47e+07 M⁻¹ s⁻¹ | 0.0266 s⁻¹ | 1.47e+07 M⁻¹ s⁻¹ | – | – | –
